Assay results: doi:10.1101/2025.01.24.634724, “Receptor Activity-Modifying Protein 3 enhances GLP-1-mediated Insulin Secretion” (bioRxiv, 2025)

Assays:
[1] = molecular target: Nluc-GLP-1R (human) (UniProt P43220)
[2] = molecular target: Nluc-GLP-1R co-expressed with FLAG-RAMP3 (UniProt P43220)
Chain of Nluc-GLP-1R co-expressed with FLAG-RAMP3 (P43220 24-463, chain 1 of 2): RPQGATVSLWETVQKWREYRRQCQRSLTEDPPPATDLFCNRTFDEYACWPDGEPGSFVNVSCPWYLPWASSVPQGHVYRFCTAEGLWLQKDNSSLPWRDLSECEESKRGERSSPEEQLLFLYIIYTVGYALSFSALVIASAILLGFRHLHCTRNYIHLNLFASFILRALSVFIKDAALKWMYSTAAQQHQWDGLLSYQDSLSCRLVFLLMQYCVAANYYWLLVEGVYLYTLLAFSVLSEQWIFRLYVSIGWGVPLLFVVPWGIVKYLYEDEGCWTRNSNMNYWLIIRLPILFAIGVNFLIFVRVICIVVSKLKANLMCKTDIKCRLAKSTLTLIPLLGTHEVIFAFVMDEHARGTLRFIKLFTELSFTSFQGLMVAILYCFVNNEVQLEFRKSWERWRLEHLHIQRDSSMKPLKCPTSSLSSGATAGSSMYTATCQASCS
Chain of Nluc-GLP-1R co-expressed with FLAG-RAMP3 (O60896 24-148, chain 2 of 2, further chain): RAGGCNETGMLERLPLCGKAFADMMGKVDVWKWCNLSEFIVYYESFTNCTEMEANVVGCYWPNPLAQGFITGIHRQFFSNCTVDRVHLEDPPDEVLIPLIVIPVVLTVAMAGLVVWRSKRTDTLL

Chain of Nluc-GLP-1R (human) (P43220 24-463): as the sequence (P43220 24-463, chain 1 of 2) above

| Substance | (Ca2+)i mobilisation in HEK293T cells, maximal response, receptor without RAMP3 (percent of 10 μM ionomycin) [1] | (Ca2+)i mobilisation in HEK293T cells, pEC50, receptor without RAMP3 [1] | (Ca2+)i mobilisation in HEK293T cells, pEC50, RAMP3 over-expressed (2:1) [2] |
| --- | --- | --- | --- |
| exendin-4 (from UniProt P26349 48-87) (peptide) | 43.6 | – | – |
| GLP-1 (7–36amide) (peptide) | – | 7.2 pEC50 | 8.1 pEC50 |
